Here are results for 1 molecule from article PMC7652391.

For this test, the target named is Mature human mitochondrial heat shock protein family D member 1 (HSPD1) (human), P10809. Put plainly: cryo-EM structure; single-particle cryoEM of reconstituted oligomeric HSPD1; grids by TED (6 and 50 ms), chameleon (54 ms) and Vitrobot (6 s blot); 50 mM Tris, 300 mM NaCl, 10 mM MgCl2 pH 8; consensus reconstructions in C1 and C7 symmetry. Particulars: remark: other sources report otherwise.

B1: Mature human mitochondrial heat shock protein family D member 1 (HSPD1), P10809 27-573 (natural protein)
chain: AKDVKFGADARALMLQGVDLLADAVAVTMGPKGRTVIIEQSWGSPKVTKDGVTVAKSIDLKDKYKNIGAKLVQDVANNTNEEAGDGTTTATVLARSIAKEGFEKISKGANPVEIRRGVMLAVDAVIAELKKQSKPVTTPEEIAQVATISANGDKEIGNIISDAMKKVGRKGVITVKDGKTLNDELEIIEGMKFDRGYISPYFINTSKGQKCEFQDAYVLLSEKKISSIQSIVPALEIANAHRKPLVIIAEDVDGEALSTLVLNRLKVGLQVVAVKAPGFGDNRKNQLKDMAIATGGAVFGEEGLTLNLEDVQPHDLGKVGEVIVTKDDAMLLKGKGDKAQIEKRIQEIIEQLDVTTSEYEKEKLNERLAKLSDGVAVLKVGGTSDVEVNEKKDRVTDALNATRAAVEEGIVLGGGCALLRCIPALDSLTPANEDQKIGIEIIKRTLKIPAMTIAKNAGVEGSLIVEKIMQSSSEVGYDAMAGDFVNMVEKGIIDPTKVVRTALLDAAGVASLLTTAEVVVTEIPKEEKDPGMGAMGGMGGGMGGGMF
As usually defined, the stoichiometry N is a count of units in the complex or per binding partner. B1 displayed a stoichiometry N of 7.
